Test results reported in publication PMC12830901.

Columns and labels:
Assay in all cases: split reporter (BiFC, NanoBiT); receptor-SmBiT and LgBiT-mini-G, LgBiT-mini-GΔα5 or LgBiT-β-arrestin transiently co-transfected in HEK293T; live cells 48 h after transfection; NanoBiT PPI system (Promega), luminescence normalised by the expression of both constructs; in the mutant and ΔHA panels the mini-GΔα5 signal was subtracted and results given as a percentage of the reference construct
[1] = target: ADGRL4-CTF1 H408A (human) (UniProt Q9HBW9)
[2] = target: ADGRL4-CTF1 F409A (human) (UniProt Q9HBW9)
[3] = target: ADGRL4-CTF1 S414A (human) (UniProt Q9HBW9)
[4] = target: ADGRL4-CTF1 L412A (human) (UniProt Q9HBW9)
[5] = target: ADGRL4-CTF1 I411A (human) (UniProt Q9HBW9)

reduction of Gq activity, percent of wild-type CTF1 [1]: > 50% | Gq activity, percent of wild-type CTF1 (% of wild-type CTF1) [2]: 12 | reduction of Gq activity, percent of wild-type CTF1 [3]: > 50% | reduction of Gq activity, percent of wild-type CTF1 [4]: > 50% | reduction of Gq activity, percent of wild-type CTF1 [5]: > 50%
Substance: LgBiT-mini-Gq (mini-Gs/q version 70)
